Reference: the supplement of paper PMC12042874
± gives the uncertainty stated by the source.

Experiment: amyloid nucleation score (Sup35N fusion, yeast selection) (log enrichment); library NNK3; higher = more nucleation; inactive = no reads after selection
Summary of the method: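 Psi-negative yeast expressed Sup35N fused to peptides of 20 random codons. They were induced 24 hours with 100 μM copper sulfate, grown 7 days at 30°C without adenine and uracil, and their plasmid inserts from input and output were Illumina-sequenced. The nucleation score is the DiMSum log enrichment of output over input reads, centred on the mode score of non-aggregating sequences. Sequences with under 100 input reads were excluded.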

| Substance | amyloid nucleation score |
| --- | --- |
| TNNAIGVFSLECIGFPEAGR | inactive |
| TNNEDKFWRVVLNLGTVTSD | inactive |
| TNRPMNGSYNNMWSRINLMV | inactive |
| TNTNTCL | inactive |
| TNVSEFQALTWMNTWYSAFS | inactive |
| TNVTANGVKPHPYPMRSPAT | inactive |
| TPKTLDWAYGYNIVSGKAIN | inactive |
| TPLDDLMCQLCSGYPLVILP | inactive |
| TPRKTLSDVLFFRLILS | inactive |
| TPRLSMDHTFVRWDCV | inactive |
| TPSLAIKK | inactive |
| TQAWSTL | inactive |
| TQDRYAISIRLVSTQLKLMS | inactive |
| TQESRDIGFTAPRGRICTQG | inactive |
| TQFTLCTIHSVLCVNA | 2.06 ± 0.078 |
| TRASRRKSHSTSMDLPIRRH | inactive |
| TRCYRASE | inactive |
| TRFLFCFNWIWGEPVACEYE | 2.39 ± 0.07 |
| TRKMLLVVSKYVMTPYGFGL | inactive |
| TRLCFIAVPLSFFMVWDTSR | inactive |
| TRLSSFRKIKEIYLLTQWKP | inactive |
| TRNIMRSIMVPSTWRVFITV | inactive |
| TRNMIMRRKSTLRHLVTEAD | inactive |
| TRRGSDLPSVLAMFLSKSTR | inactive |
| TRRSKGQFIYCPSNGMKCSG | inactive |
| TRSRFWRRTKLPLVSVRYHN | inactive |

| Substance | amyloid nucleation score |
| --- | --- |
| TRSVFIHVYW | 0.095 ± 0.5 |
| TRWRLSVYERVGARRDTPLC | inactive |
| TRWRSLSEGPSVGLEITPRF | inactive |
| TRYCVVNW | -0.511 ± 0.56 |
| TRYPFQWLLRVGWKGAHLGM | inactive |
| TSFGMSTPCQAFARSVDDRG | inactive |
| TSGGTFQDATSHNSNSHMWK | inactive |
| TSGWEFRRFPNFQLLILSCF | inactive |
| TSLEN | inactive |
| TSLGNGVSHGTLGFILTVNT | inactive |
| TSNALYLLLLRHLYNMLLHV | inactive |
| TSRTGRMEYISRELGQRVWM | inactive |
| TSSWYFILDVHCGSEGNSEA | 0.438 ± 0.28 |
| TTCYTLFSTDENDNSKWICG | inactive |
| TTKQKV | inactive |
| TTNSQAWPMLTAVRLVYNEG | inactive |
| TTRRSTYGFEIKYILIVFVH | inactive |
| TTSLMSKVFY | inactive |
| TTTFKLGISKSLDVSTRLRG | 0.31 ± 0.14 |
| TVAMR | inactive |
| TVFLDIISDVLILGGVRCRR | 1.26 ± 0.13 |
| TVGVTYIKVWNVPNILYRGC | 0.769 ± 0.15 |
| TVLCAC | inactive |
| TVLCRYVAYLVVSANYLDEC | inactive |
| TVMLRRTRYVVYTVYRVVDV | inactive |
| TVMVKSSYGLNCFGRSF | 0.743 ± 0.13 |

| Substance | amyloid nucleation score |
| --- | --- |
| TVNHDAIRELTDTSTDIFMS | inactive |
| TVPFTPIICESVFSD | inactive |
| TVPVSSCGGLRNEPHDVRFG | inactive |
| TVRFEGIGSHVRHTFCALDF | inactive |
| TVRGEVVGPSDNREKIQKQW | inactive |
| TVVMWSSKDREVDSIDMSFV | inactive |
| TVYLACIC | inactive |
| TVYSRHIDRGYWIADGCSRV | inactive |
| TWCFDSACNANGTWR | inactive |
| TWDICFSTLFLMPRMWFGHL | inactive |
| TWELHV | -0.428 ± 1 |
| TWLGLLCREGSSNWV | inactive |
| TWRKGVSVLVLSGFVVTNQR | inactive |
| TWSACPTLCLD | -0.392 ± 0.98 |
| TWSSLFMIFQYTCAGCWDFK | 1.52 ± 0.068 |
| TWTMDSSLWMLWAVQVVEGR | inactive |
| TYGGLFLVHTVYVVALNWVR | inactive |
| TYGSVNCVSLMCSVVVLFAM | inactive |
| TYHWLNRGYRMGSLENRLLK | inactive |
| TYLGDSFSILHLIQGDWFIE | inactive |
| TYTFLSPVIDYKLYVYQCRT | 1.72 ± 0.067 |
| VACRVVGNSSVWVFRRHVEN | inactive |
| VAETYLRTA | inactive |
| VAFFSGWQIVVLFMKVL | inactive |
| VAGSRCMDAWVKWCMVIRMF | 0.247 ± 0.25 |
| VARIIYQRIW | inactive |
